Results: patent publication US20230331796A1

Target: single chain C1q fusion polypeptide according to formula I (TAG-X1-C1qA-X2-C1qB-X3-C1qC-X4) (human)
Assay: C1q affinity chromatography, immobilised fusion polypeptide, linear NaCl gradient in 20 mM HEPES pH 7.4

Sequence of single chain C1q fusion polypeptide according to formula I (TAG-X1-C1qA-X2-C1qB-X3-C1qC-X4) (human) (main, as listed by the source): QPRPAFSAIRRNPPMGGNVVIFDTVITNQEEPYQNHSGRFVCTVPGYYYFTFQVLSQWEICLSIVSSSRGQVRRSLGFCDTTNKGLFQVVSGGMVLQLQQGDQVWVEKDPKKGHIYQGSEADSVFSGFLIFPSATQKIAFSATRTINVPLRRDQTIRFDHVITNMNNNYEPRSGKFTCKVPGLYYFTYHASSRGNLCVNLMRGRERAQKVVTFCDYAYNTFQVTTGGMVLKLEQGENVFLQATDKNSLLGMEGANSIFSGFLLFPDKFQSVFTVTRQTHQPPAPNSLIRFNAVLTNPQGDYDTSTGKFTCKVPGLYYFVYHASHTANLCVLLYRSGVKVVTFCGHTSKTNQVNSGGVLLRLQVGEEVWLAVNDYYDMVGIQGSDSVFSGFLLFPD

retention time [min] | Substance
39.1 | Ustekinumab (antibody)
30.7 | Briakinumab (antibody)
